Data published in patent EP1775307B1 (dated 2011).
One block for each molecule: values may come before it.

Columns and labels:
[1] = molecular target: 28/32 kDa heterodimeric antigen on the surface of malignant B-cells (human); experiment: Scatchard analysis, 125I-labeled antibody on Raji cells
[2] = molecular target: T1, human CD3 antigen (CD3 complex) on T cells (human, UniProt P07766 23-207); experiment: Scatchard analysis, 125I-labeled HuM291-Fos on activated human T cells
T1 construct: whole, on cells; Multi-subunit complex; also called human CD3 complex
T1 sequence (P07766 23-207, one chain of several): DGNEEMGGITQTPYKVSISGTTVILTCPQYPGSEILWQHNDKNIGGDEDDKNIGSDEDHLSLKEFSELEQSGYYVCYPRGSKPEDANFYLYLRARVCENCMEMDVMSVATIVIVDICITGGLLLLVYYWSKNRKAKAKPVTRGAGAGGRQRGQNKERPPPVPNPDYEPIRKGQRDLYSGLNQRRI

Ka [1]: 2.3e+08 M⁻¹
Molecule: humanized 1D10-IgG1 (antibody)

Ka [2]: 1.1e+09 M⁻¹
B1: HuM291-Fos F(ab'-zipper)2 (other)
chain 1: QVQLVQSGAEVKKPGASVKVSCKASGYTFISYTMHWVRQAPGQGLEWMGYINPRSGYTHYNQKLKDKATLTADKSASTAYMELSSLRSEDTAVYYCARSAYYDYDGFAYWGQGTLVTVSSASTKGPSVFPLAPSSKSTSGGTAALGCLVKDYFPEPVTVSWNSGALTSGVHTFPAVLQSSGLYSLSSVVTVPSSSLGTQTYICNVNHKPSNTKVDKKVEPKSCDKTHTCPPCKCPAGGLTDTLQAETDQLEDKKSALQTEIANLLKGKEKLEFILAATS
chain 2: DIQMTQSPSSLSASVGDRVTITCSASSSVSYMNWYQQKPGKAPKRLIYDTSKLASGVPSRFSGSGSGTDFTLTISSLQPEDFDTYYCQQWSSNPPTFGGGTKVEIKRTVAAPSVFIFPPSDEQLKSGTASVVCLLNNFYPREAKVQWKVDNALQSGNSQESVTEQDSKDSTYSLSSTLTLSKADYEKHKVYACEVTHQGLSSPVTKSFNRGEC
